T1: G-CSFR(Ig-CRH)E design 9, purified, tag cleaved (human, UniProt Q99062 26-331)
T1 construct: SPR protein; also called Design 9 G-CSFR(Ig-CRH)E
T1 chain: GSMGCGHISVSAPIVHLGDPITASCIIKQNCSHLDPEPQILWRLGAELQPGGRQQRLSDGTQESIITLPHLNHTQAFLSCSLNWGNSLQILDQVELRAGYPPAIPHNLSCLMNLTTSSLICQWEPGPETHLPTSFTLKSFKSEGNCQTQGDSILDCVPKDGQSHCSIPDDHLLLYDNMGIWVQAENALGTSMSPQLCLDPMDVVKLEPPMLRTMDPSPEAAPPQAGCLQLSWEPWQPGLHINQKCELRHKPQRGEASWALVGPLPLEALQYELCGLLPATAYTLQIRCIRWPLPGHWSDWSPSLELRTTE

T2: G-CSFR(Ig-CRH)E design 30, purified, tag cleaved (human, UniProt Q99062 26-331)
T2 construct: also called Design 30 G-CSFR(Ig-CRH)E
T2 chain: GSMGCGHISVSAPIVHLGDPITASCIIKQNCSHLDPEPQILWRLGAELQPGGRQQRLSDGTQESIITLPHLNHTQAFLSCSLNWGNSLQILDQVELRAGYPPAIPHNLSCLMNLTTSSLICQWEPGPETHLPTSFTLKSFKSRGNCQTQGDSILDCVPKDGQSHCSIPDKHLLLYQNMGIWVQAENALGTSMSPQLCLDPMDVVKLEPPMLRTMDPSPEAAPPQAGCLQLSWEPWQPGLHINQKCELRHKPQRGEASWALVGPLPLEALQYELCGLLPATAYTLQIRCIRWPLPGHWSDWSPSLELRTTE

T3: G-CSFR(Ig-CRH)E design 34, purified, tag cleaved (human, UniProt Q99062 26-331)
T3 construct: SPR protein; also called Design 34 G-CSFR(Ig-CRH)E
T3 chain: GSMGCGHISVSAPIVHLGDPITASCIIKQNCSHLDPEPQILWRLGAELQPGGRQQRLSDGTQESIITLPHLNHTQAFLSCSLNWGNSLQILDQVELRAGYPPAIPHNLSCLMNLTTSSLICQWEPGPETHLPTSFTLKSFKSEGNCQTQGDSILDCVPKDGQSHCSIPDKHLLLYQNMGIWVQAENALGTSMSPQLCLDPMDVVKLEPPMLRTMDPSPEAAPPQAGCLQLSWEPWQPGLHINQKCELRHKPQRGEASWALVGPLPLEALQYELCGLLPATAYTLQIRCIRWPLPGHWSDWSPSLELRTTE

T4: G-CSFR(Ig-CRH)E design 35, purified, tag cleaved (human, UniProt Q99062 26-331)
T4 construct: SPR protein; also called Design #35 G-CSFR(Ig-CRH)E
T4 chain: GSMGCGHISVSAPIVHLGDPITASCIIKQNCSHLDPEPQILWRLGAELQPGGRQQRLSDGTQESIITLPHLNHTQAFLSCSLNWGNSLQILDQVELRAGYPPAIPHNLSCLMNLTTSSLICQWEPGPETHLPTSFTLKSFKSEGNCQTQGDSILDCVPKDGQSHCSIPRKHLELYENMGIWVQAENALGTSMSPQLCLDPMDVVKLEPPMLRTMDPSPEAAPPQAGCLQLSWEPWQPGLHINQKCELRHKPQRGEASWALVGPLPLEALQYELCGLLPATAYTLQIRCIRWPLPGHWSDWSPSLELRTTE

B1: WT G-CSF, purified, tag cleaved (ligand)
chain: TPLGPASSLPQSFLLKCLEQVRKIQGDGAALQEKLCATYKLCHPEELVLLGHSLGIPWAPLSSCPSQALQLAGCLSQLHSGLFLYQGLLQALEGISPELGPTLDTLQLDVADFATTIWQQMEELGMAPALQPTQGAMPAFASAFQRRAGGVLVASHLQSFLEVSYRVLRHLAQAAAENLYFQ
notes: also called G-CSFWT

Assays:
[1] = molecular target: T1, G-CSFR(Ig-CRH)E design 9, purified, tag …; test: SPR (Biacore T200)
[2] = molecular target: T2, G-CSFR(Ig-CRH)E design 30, purified, …; test: SPR (Biacore T200)
[3] = molecular target: T3, G-CSFR(Ig-CRH)E design 34, purified, …; test: SPR (Biacore T200)
[4] = molecular target: T2, G-CSFR(Ig-CRH)E design 30, purified, …; test: SPR (Biacore T200), WT G-CSF vs design receptor; KD relative to WT:WT control (larger = weaker)
[5] = molecular target: T4, G-CSFR(Ig-CRH)E design 35, purified, …; test: as above
[6] = molecular target: T1, G-CSFR(Ig-CRH)E design 9, purified, tag …; test: SPR (Biacore T200), WT G-CSF vs design receptor; steady-state derived KD relative to steady-state WT:WT KD (larger = weaker)
[7] = molecular target: T3, G-CSFR(Ig-CRH)E design 34, purified, …; test: as above
[8] = molecular target: B1; test: SPR (Biacore T200, 25 C), kinetic fit, 1:1 Langmuir; range over independent experiments; lower end of the range over the WT:WT runs
Protocol: The SPR binding assays were carried out on a Biacore T200 instrument (GE Healthcare, Mississauga, ON, Canada) with PBS-T (PBS+0.05% (v/v) Tween 20) running buffer at a temperature of 25° C. […] Designs were assessed in three different immobilization orientations.
Double-referenced sensorgrams from duplicate or triplicate repeat injections were analyzed using Biacore™ T200 Evaluation Software v3.0 and fit to the 1:1 Langmuir binding model.
Kinetic-derived affinity constants (KD) where obtained by fitting the association and dissociation phases of the curves. […] For the cases in which the kinetic parameters could not be fit an attempt was made to derive a steady state affinity constant.

| Binder | fold weaker affinity (vs WT:WT) [1] [fold] | fold weaker affinity (vs WT:WT) [2] [fold] | fold weaker affinity (vs WT:WT) [3] [fold] | KD fold change (vs WT:WT) [4] [fold] | KD fold change (vs WT:WT) [5] [fold] | KD fold change (vs WT:WT) [6] [fold] | KD fold change (vs WT:WT) [7] [fold] | Kd [8] [nM] |
| --- | --- | --- | --- | --- | --- | --- | --- | --- |
| B1 | 700 | 700 | 700 | 774 | 19 | 8810 | 4260 |  |
| WT G-CSFR(Ig-CRH), purified, tag cleaved (receptor, also called G-CSFRWT; wild type G-CSFR ECD) GSMGCGHISVSAPIVHLGDPITASCIIKQNCSHLDPEPQILWRLGAELQPGGRQQRLSDGTQESIITLPHLNHTQAFLSCSLNWGNSLQILDQVELRAGYPPAIPHNLSCLMNLTTSSLICQWEPGPETHLPTSFTLKSFKSRGNCQTQGDSILDCVPKDGQSHCSIPRKHLLLYQNMGIWVQAENALGTSMSPQLCLDPMDVVKLEPPMLRTMDPSPEAAPPQAGCLQLSWEPWQPGLHINQKCELRHKPQRGEASWALVGPLPLEALQYELCGLLPATAYTLQIRCIRWPLPGHWSDWSPSLELRTTE |  |  |  |  |  |  |  | 1.8 to 2.5 |

From patent US20240115603A1 (Zymeworks, published 2024)
